Experimental findings from patent US20220332804A1 (CSL INNOVATION, published 2022) are described below.

One may read the Kd as the constant that tells how readily two partners part at equilibrium. High values mean a looser complex, low ones a tighter complex.

What all share (test): SPR, antibody captured, C2 as analyte;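 further: biacore SPR at 37 °C, anti-C2 mAbs captured via goat anti-human IgG on CM5 chips, double-referenced sensorgrams fit to a 1:1 kinetic or steady-state model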
The target in one experiment is T1, human C2 D441A (human, UniProt P06681 21-752).
T1 sequence: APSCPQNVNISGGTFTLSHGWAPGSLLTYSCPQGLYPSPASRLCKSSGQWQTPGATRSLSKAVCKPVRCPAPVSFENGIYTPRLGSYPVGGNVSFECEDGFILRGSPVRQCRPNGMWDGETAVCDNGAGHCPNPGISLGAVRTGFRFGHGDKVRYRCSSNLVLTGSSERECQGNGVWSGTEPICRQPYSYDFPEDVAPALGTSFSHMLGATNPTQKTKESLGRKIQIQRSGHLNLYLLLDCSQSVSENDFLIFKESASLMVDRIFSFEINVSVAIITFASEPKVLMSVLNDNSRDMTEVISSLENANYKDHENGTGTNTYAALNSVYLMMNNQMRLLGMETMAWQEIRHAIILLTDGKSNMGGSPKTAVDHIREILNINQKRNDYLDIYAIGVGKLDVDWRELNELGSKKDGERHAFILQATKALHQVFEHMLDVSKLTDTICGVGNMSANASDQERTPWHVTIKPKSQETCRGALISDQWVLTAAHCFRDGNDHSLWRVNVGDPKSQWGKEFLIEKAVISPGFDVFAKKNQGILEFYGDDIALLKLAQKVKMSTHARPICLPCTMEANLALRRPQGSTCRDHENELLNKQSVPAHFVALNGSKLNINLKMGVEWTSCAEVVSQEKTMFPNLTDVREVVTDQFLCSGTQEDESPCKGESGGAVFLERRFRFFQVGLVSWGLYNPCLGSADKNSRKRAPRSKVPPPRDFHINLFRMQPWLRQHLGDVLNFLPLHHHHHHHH

A further experiment addresses T2, human C2 I320A (human, UniProt P06681 21-752).
T2 sequence: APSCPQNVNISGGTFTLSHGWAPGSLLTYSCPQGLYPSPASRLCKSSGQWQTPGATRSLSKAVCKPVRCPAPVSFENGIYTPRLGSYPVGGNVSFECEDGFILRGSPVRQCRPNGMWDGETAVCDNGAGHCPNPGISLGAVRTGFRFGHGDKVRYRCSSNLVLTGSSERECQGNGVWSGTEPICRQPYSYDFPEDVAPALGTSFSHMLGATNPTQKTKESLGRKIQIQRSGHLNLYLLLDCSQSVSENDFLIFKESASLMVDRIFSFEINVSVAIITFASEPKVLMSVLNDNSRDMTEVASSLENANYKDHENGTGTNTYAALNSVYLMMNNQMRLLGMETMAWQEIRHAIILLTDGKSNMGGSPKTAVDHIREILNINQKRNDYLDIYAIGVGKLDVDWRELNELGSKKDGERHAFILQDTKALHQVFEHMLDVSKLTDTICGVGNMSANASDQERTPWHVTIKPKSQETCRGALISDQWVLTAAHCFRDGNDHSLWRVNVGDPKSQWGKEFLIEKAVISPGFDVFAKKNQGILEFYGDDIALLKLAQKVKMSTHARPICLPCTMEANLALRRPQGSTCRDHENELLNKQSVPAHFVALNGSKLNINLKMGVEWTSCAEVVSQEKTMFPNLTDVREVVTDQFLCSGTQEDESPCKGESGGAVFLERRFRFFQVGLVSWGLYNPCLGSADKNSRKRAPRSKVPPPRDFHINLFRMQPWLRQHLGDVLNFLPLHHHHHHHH

Another experiment concerns the target T3, human C2 Y702A (human, UniProt P06681 21-752).
T3 sequence: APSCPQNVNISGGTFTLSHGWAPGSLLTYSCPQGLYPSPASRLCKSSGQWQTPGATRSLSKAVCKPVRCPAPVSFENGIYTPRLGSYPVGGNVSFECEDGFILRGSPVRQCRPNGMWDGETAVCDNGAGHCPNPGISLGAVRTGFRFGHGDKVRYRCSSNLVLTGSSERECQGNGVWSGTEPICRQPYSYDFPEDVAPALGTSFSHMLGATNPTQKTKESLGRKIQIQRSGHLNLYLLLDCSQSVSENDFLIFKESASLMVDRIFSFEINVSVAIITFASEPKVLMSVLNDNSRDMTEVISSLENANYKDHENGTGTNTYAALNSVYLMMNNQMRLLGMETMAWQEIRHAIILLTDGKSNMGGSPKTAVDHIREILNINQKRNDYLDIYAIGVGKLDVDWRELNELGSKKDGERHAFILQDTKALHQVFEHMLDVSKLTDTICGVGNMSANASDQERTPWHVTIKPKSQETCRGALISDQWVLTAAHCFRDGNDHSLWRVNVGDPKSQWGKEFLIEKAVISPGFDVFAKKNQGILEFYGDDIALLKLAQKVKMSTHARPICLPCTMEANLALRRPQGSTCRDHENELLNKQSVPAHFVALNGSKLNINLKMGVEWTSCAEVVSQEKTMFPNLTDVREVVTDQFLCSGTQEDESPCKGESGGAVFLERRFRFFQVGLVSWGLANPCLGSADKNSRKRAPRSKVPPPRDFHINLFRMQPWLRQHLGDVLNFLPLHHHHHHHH

In another experiment the target is T4, human C2 W420A (human, UniProt P06681 21-752).
T4 sequence: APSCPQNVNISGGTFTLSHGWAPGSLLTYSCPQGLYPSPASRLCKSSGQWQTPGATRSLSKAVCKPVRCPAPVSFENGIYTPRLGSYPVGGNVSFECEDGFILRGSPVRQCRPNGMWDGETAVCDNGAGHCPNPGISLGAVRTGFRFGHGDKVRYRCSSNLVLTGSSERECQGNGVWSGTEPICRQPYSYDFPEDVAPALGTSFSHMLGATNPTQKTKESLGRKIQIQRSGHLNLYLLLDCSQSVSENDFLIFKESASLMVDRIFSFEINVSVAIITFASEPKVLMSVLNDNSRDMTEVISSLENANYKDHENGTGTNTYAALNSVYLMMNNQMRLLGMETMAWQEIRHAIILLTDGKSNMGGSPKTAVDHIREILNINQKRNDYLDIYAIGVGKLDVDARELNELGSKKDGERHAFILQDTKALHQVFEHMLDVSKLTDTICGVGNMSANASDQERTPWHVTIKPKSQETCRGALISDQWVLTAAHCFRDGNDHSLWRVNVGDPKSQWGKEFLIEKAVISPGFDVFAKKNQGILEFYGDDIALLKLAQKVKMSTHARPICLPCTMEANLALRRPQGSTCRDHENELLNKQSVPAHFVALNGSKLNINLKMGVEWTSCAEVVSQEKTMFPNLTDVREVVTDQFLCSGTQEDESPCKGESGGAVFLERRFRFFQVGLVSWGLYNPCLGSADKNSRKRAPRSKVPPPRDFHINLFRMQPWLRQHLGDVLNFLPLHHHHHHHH

B1: RF16-226 (antibody, human IgG4 S228P, lambda)
heavy: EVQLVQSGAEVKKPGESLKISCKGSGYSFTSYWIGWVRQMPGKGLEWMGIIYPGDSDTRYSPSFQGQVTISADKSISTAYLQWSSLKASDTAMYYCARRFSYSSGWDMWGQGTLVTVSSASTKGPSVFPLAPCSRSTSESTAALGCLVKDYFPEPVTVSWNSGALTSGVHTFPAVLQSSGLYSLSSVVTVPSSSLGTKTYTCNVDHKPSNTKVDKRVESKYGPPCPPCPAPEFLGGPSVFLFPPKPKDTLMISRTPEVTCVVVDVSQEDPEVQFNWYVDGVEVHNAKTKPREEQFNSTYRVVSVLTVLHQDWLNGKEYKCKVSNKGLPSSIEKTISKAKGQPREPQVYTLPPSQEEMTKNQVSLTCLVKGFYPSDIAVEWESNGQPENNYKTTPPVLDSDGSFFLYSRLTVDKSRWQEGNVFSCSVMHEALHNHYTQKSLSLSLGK
light: SYELTQPPSVSVSPGQTARITCSGDALTSKYVAWYQQKSGLAPLLVIYEDTRRPSGIPAKFSGSSSGSVATLTISGAHGDDEADYYCYSTDASGHQRVFGGGTKLTVLSQPKAAPSVTLFPPSSEELQANKATLVCLISDFYPGAVTVAWKADGSPVKAGVETTKPSKQSNNKYAASSYLSLTPEQWKSHRSYSCQVTHEGSTVEKTVAPTECS
notes: pH-dependent anti-C2 antibody from a phage display library; also called WT
Take B1: the Kd with human C2 D441A stood at 63.9 nM; with human C2 I320A it was 116 nM; with human C2 Y702A, 106 nM; with human C2 W420A, 15.6 nM.
